Biological target: SARS-CoV-2 S-protein S1 subunit (SARS-CoV-2)
Test: ELISA

human ACE2 extracellular domain, wildtype, Fc-tagged dimeric form (from UniProt Q9BYF1-1 18-615) (Fc fusion)
EC50: 0.0104 µM

Reference: PMC8041869
